These are literature values, as cited in paper PMC5120336.

The target of the data set is IRAK-4 kinase domain (Homo sapiens) (UniProt Q9NWZ3).

Sequence of IRAK-4 kinase domain (Q9NWZ3 154-460): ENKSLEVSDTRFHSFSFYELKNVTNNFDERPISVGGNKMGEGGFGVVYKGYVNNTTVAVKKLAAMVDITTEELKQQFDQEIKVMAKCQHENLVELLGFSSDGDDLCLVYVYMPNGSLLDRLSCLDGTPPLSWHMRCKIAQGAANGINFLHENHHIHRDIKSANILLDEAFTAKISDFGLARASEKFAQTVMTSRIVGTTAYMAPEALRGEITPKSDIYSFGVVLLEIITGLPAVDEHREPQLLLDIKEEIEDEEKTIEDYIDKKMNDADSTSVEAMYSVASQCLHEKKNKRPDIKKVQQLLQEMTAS

Take “IRAK-4 kinase domain (from UniProt Q9NWZ3)”: the Kd was 2500 nM.
